From patent US20030148973A1, “MAGE-A1 peptides for treating or preventing cancer” (priority 2001, published 2003)

Target: HLA-A0201 molecules on the surface of T2 cells
Experiment: T2 cell HLA-A0201 stabilization; 20 µg peptide on 10^6 acid-stripped T2 cells, BB7.2 staining, flow cytometry
Details: remark: other sources report otherwise

Fluorescence Index (FI): 1.73 FI
B1: MAGE-A1 174 (peptide)
peptide: CLGLSYDGL
